Test results as given in paper PMC6249601.

Target: EBOV GP.10xhis
Test: SPR
Details: for increase in kd values at pH 5.0: second pH 7.4

Substance	koff (pH 5.0)	t 1/2 (min) (pH 5.0)	koff (pH 6.0)	t 1/2 (min) (pH 6.0)	koff (pH 7.4)	t 1/2 (min) (pH 7.4)	increase in kd values at pH 5.0
REGN3470	0.000491 s⁻¹	23.5 min	0.000367 s⁻¹	31.4 min	0.000432 s⁻¹	26.7 min	less than 2-fold
REGN3471	0.000332 s⁻¹	34.8 min	0.000221 s⁻¹	52.3 min	0.000195 s⁻¹	59.1 min	less than 2-fold
REGN3479	0.000202 s⁻¹	57.3 min	0.000214 s⁻¹	55.1 min	7.83e-05 s⁻¹	148 min	3-fold
